How the values were obtained:
mice [1] = assay: Forced swim test (FST); assay type: in vivo, mouse; settings: acute treatment
Experimental: (§1) Mice were treated as described above before being subjected to behavioral studies. Predictive estimation for anxiolytic properties of tat-cyclotraxin-B was assessed using open field and elevated plus-maze (EPM). Antidepressant-like action of tat-cyclotraxin-B was assessed with the forced-swim test (FST). Effects of acute treatment with tat-cyclotraxin-B on spontaneous locomotion, exploration and reactivity to a novel open field was assessed in plexiglas activity chambers (Med Associates; 45×45×31 cm). Mice were placed into the center of the open field, and activity was recorded for 30 min. Testing took place under bright ambient light conditions to increase the anxiety component of the center areas of the field (defined as the central 15×15 cm portion). Mice subjected to EPM received a double 90-interval i.v. injection of tat-cyclotraxin-B or saline buffer before being placed on the platform of the EPM and assessed for 5 min (26×5×36 cm). The diazepam control group consisted of saline buffer double-treated mice that further received a 30-min i.p. injection of diazepam (1 mg/kg). Mice were assessed for number of entries and amount of time spent in open versus closed arms. The FST procedure was applied to treated mice as described by Porsolt et al. (see ref. [60]). Mice were dropped individually into glass cylinder (height, 25 cm; diameter, 10 cm) containing 10 cm water height, maintained at 23–25°C. Animals were tested for a total of 6 min. The total time of swimming, the number of climbing attempts and the time of immobility was recorded during the last 4 min of the session, after 2 min of habituation. The paroxetine control group consisted of saline buffer double-treated mice that further received a 30-min i.p. injection of paroxetine (2 mg/kg). Behaviors were recorded on videotape and scored blind.

mice [2] = assay: Elevated plus-maze (EPM); assay type: in vivo, mouse; settings: vs saline
Experimental: as §1

[3] = Brain localization after intravenous injections (immunohistochemistry); assay type: in vivo, mouse; settings: mice; four hours after the last intravenous injection; cortex, hippocampus, striatum, nucleus accumbens
Experimental: Mice were injected twice with 200 µg of biotinylated tat-cyclotraxin-B. […] Brains were postfixed for 1 h in 4% paraformaldehyde and cut in 40-µm sections with a vibratome. Sections obtained at the same levels as for in vivo KIRA-ELISA analysis (see Fig. S8) were rinsed in PBS and incubated in TBS containing 0.05% Tween-20 with VectaStain ABC Elite kit (Vector Laboratories). […] Non-injected mice were used as negative controls for endogenous biotin.

TrkB in brain slices = target: T1, TrkB in brain slices (Mus musculus, UniProt P15209); assay: KIRA-ELISA in brain slices incubated with peptide; assay type: cell-based; settings: 1 µM directly added to the slice, BDNF 4 nM
T1 construct: KIRA-ELISA analysis of brain TrkB receptors from mice; from tissue; host or cells: adult Swiss mouse brain, 300-µm coronal slices
T1 sequence (P15209 32-821): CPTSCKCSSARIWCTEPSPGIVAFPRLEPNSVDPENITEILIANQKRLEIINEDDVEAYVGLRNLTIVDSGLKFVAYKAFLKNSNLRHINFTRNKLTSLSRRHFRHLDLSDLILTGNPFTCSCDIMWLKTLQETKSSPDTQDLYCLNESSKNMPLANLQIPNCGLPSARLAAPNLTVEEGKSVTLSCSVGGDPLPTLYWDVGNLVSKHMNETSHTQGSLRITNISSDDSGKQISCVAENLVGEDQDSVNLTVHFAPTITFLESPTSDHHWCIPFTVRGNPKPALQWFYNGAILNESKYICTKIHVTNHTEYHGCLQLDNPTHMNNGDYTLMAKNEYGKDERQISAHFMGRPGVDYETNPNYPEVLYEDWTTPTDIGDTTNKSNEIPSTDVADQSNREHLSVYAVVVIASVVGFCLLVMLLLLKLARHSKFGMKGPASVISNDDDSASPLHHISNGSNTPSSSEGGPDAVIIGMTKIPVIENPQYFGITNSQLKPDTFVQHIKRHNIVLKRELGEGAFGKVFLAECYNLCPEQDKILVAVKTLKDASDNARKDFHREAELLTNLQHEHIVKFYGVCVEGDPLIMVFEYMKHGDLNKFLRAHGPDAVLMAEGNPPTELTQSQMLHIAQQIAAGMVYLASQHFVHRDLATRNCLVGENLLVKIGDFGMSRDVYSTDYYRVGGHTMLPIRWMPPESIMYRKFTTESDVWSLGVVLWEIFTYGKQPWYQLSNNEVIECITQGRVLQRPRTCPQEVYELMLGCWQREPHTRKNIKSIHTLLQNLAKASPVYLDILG
Experimental: TrkB activity was quantified using the previously described KIRA-ELISA assay with slight modifications. Cortical neurons were seeded on polyornithin-coated flat-bottom 96-well culture plates (12×10^4 cells per well) and cultured eight days at 37°C in 5% CO2. TetOn-rhTrkB cells were seeded on flat-bottom 96-well culture plates (4×10^4 cells per well) and incubated overnight with 1000 ng/ml doxycycline (Figs. S1,S2) except when indicated. Fluorescence levels in TetOn-rhTrkB cells were verified before each assay. […] Solubilized membranes were transferred for 2 h at room temperature onto ELISA microtiter plate (Nunc Maxisorp) pre-coated overnight at 4°C with appropriate antibodies [polyclonal anti-GFP (1∶5000, Clontech) for TetOn-rhTrkB, polyclonal anti-TrkB (1 µg/ml, Upstate) for cultured neurons and brain slices, for phosphorylation assays; monoclonal anti-GFP (1∶3000, Chemicon) for TetOn-rhTrkB, monoclonal anti-TrkB (1∶1000, BD Biosciences) for cultured neurons and brain slices, for total TrkB quantification]. […] Absorbance was read at 450 nm after addition of 3,3′,5′,5-tetramethyl-benzidine substrate (Sigma) and acidification with 1N hydrochloric acid.

human TrkB receptor = target: T2, human TrkB receptor (Homo sapiens, UniProt Q16620); assay: KIRA-ELISA (TrkB tyrosine phosphorylation) in TetOn-rhTrkB CHO cells; assay type: cell-based; settings: TetOn-rhTrkB cells, with or without 4 nM BDNF
T2 construct: expressed in transfected cells
T2 sequence (Q16620 32-822): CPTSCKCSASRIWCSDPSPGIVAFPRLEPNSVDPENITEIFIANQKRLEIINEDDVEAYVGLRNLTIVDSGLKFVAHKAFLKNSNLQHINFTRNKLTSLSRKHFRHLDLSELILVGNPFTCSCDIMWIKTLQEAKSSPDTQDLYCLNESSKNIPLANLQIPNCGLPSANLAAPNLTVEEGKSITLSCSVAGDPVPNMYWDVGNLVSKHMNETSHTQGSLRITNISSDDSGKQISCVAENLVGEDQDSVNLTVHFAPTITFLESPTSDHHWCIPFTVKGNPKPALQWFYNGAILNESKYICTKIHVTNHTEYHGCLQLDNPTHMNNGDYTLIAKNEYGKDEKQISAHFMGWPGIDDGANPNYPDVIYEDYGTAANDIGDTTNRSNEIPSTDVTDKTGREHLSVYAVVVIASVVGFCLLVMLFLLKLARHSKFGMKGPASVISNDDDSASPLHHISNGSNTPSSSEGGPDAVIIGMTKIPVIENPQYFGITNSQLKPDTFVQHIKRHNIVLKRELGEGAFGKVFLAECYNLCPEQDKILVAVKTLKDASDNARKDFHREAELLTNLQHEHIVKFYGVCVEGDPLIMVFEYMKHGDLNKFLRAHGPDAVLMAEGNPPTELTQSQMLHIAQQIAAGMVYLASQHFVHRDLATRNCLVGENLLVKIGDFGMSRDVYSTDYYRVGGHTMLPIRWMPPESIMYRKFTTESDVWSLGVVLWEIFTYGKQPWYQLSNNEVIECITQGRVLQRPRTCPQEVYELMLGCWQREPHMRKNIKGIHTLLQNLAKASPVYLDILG
Source text: (§2) The human recombinant TrkB receptor was fluorescently tagged at its C-terminus with the Enhanced cyan fluorescent protein (rhTrkB-ECFP) by cloning the full human TrkB sequence (kindly provided by G. M. Brodeur) into the pECFP-N1 expression vector (Clontech). For inducible expression, rhTrkB-ECFP was subcloned into the tetracycline-responsive (TetOn) vector pTRE2 (Clontech). Chinese Hamster Ovary cells stably expressing rhTrkB-ECFP (TetOn-rhTrkB cells), were produced by transfection of the pTRE2-rhTrkB-ECFP plasmid into CHO-K1 TetOn cells (Clontech) followed by clone selection in 0.25 mg/ml hygromycin B (Invitrogen) and 0.1 mg/ml geneticin (G418; Invitrogen). Resistant cells were selected based on both fluorescence intensity and KIRA-ELISA profile after an overnight incubation in presence of 1000 ng/ml doxycycline (Clontech). Cortical neurons were prepared and cultured from E16 mouse embryos as described previously. The nnr5 PC12-TrkA, nnr5 PC12-TrkB and nnr5 PC12-TrkC cells (kindly provided by M. V. Chao) are NGF non-responding mutant PC12 cells stably transfected with TrkA, TrkB and TrkC cDNA, respectively.
(§3) TrkB activity was quantified using the previously described KIRA-ELISA assay with slight modifications. Cortical neurons were seeded on polyornithin-coated flat-bottom 96-well culture plates (12×10^4 cells per well) and cultured eight days at 37°C in 5% CO2. TetOn-rhTrkB cells were seeded on flat-bottom 96-well culture plates (4×10^4 cells per well) and incubated overnight with 1000 ng/ml doxycycline (Figs. S1,S2) except when indicated. Fluorescence levels in TetOn-rhTrkB cells were verified before each assay. […] Assay was stopped by removing the medium on ice and membranes were solubilized using KIRA-ELISA solubilization buffer (NaCl 150 mM, Hepes 50 mM, Triton X-100 0.5%, thimerosal 0.01%, sodium orthovanadate 2 mM, supplemented with a cocktail of protease inhibitors) for 1 h at room temperature. Solubilized membranes were transferred for 2 h at room temperature onto ELISA microtiter plate (Nunc Maxisorp) pre-coated overnight at 4°C with appropriate antibodies [polyclonal anti-GFP (1∶5000, Clontech) for TetOn-rhTrkB, polyclonal anti-TrkB (1 µg/ml, Upstate) for cultured neurons and brain slices, for phosphorylation assays; monoclonal anti-GFP (1∶3000, Chemicon) for TetOn-rhTrkB, monoclonal anti-TrkB (1∶1000, BD Biosciences) for cultured neurons and brain slices, for total TrkB quantification]. […] Absorbance was read at 450 nm after addition of 3,3′,5′,5-tetramethyl-benzidine substrate (Sigma) and acidification with 1N hydrochloric acid.
(§4) Concentration-response and competition curves were obtained using an iterative least-squares method derived from that of Parker & Waud (1971). […] Concentration-response curves and Eadie-Hofstee plots were analyzed using two-way ANOVA. Significance over time in locomotor activity studies was given using two-way ANOVA followed by Bonferroni's post-hoc test. […] One-way ANOVA followed by post-hoc Dunnett's test was used to evaluate statistical significance compare to saline group in EPM and FST procedures. n represents the number of independent experiments.

[4] = target: T3, native TrkB receptors in cortical neurons (Mus musculus, UniProt P15209); assay: KIRA-ELISA (TrkB tyrosine phosphorylation) in primary cortical neurons; assay type: cell-based; settings: cortical neurons, with or without 4 nM BDNF
T3 construct: cortical neurons naturally express TrkB receptors; endogenous in cells; host or cells: primary cortical neurons from E16 mouse embryos
T3 sequence (P15209 32-821): as the sequence (P15209 32-821) above
Source text: as §2, §3, §4

mice [5] = assay: Open field; assay type: in vivo, mouse
Experimental: as §1, with “The FST procedure was applied to treated mice as described by Porsolt et al. (see ref. [60]). Mice were dropped individually into glass cylinder (height, 25 cm; diameter, 10 cm) containing 10 cm water height, maintained at 23–25°C. Animals were tested for a total of 6 min.” left out, “The paroxetine control group consisted of saline buffer double-treated mice that further received a 30-min i.p. injection of paroxetine (2 mg/kg).” left out

YGRKKRRQRRRCNPMGYTKEGC [tat-cyclotraxin-B]
FST swimming capabilities (mice [1]): not affected
FST climbing attempts (mice [1]; vs saline): not observed
FST time of immobility (mice [1]; vs saline): not observed
EPM number of entries in open arms (mice [2]): significantly increased
EPM time spent in open arms (mice [2]): significantly increased
detection in brain after intravenous injection [3]: detected in many brain structures
decrease in TrkB activity, slice incubation (TrkB in brain slices): 52.0±3.9%
TrkB inhibition compared with cyclotraxin-B (human TrkB receptor): similarly to cyclotraxin-B
TrkB inhibition compared with cyclotraxin-B [4]: similarly to cyclotraxin-B
locomotor activity in open field (mice [5]; 30 min): did not show any alterations
time in the center compartment of open field (mice [5]; compared to saline controls): significantly more time

Reference: publication PMC2841647 (PLoS ONE, 2010)
